{"source": "patent US20210214435A1", "about": "(MorphoSys, published 2021)", "key": {"[1]": {"molecular_target": "T1, mouse GPVI on the cell surface of mouse platelets (mouse, UniProt P0C191 22-313)", "T1 construct": "whole, on cells; also called GPVI on murine platelets", "T1 sequence (looked up)": "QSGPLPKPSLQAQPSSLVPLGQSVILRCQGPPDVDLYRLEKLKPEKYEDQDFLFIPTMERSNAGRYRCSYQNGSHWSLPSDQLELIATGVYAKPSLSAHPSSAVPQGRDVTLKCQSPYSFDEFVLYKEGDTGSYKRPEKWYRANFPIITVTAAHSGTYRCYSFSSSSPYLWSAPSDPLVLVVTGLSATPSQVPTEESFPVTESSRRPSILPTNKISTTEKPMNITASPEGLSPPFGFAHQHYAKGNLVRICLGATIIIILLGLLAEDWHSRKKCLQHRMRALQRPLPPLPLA", "assay": "FACS on washed murine platelets from PRP (one exemplary donor), PE-conjugated detection antibody, median fluorescence", "description": "Platelet-rich plasma (PRP) from up to 4 donors was prepared by centrifugation of citrated whole blood for 15 min at 150×g without brake. The resulting supernatant was transferred as PRP into a new sample tube without disturbing the underlying leukocyte-rich interphase. After careful washing in Tyrode's buffer supplemented with Prostacyclin 1₂ (PGI2; Epoprostenol-Rotexmedica), platelets were resuspended in Tyrode's/PGI2 and transferred to 96 well V-bottom microtiter plates. Platelets were spiked with Fab (comprising a modified heavy chain constant region) diluted to final concentrations between 0.015-30 μg/ml in Tyrode's/PGI2 and incubated for 30 min at RT. Platelets were carefully washed to remove non-bound Fab and then incubated for 30 min at RT with a Phycoerythrine (PE)-conjugated detection antibody (Jackson ImmunoResearch). After incubation for 30 min at RT, platelets were analyzed by flow cytometry in a FACS Canto II (Becton Dickinson). In the case of Fab directly conjugated with PE (FIG. 1D), incubation with detection antibody was omitted. Data was evaluated using FACS Diva software (Becton Dickinson). EC50 values were calculated using Prism 5 software (GraphPad)."}, "[2]": {"molecular_target": "T2, mouse GPVI extracellular domain fused at its C-terminus to human IgG1 Fc (GPVI-Fc) (mouse; human)", "T2 construct": "also called mGPVI; mouse GPVI-Fc", "assay": "Competition ELISA (MSD): mouse GPVI-Fc preincubated with Fab, then on coated VitroCol (competitor)", "description": "(§1) 1 or 10 μg/ml of recombinant GPVI collagen substrate (crosslinked collagen-related peptide (CRP-XL (Anaspec, Inc.), rat-tail collagen (Enzo Life Sciences) or VitroCol (Advanced BioMatrix, Inc.) was coated on a MSD-plate over night at 4° C., washed with PBST, blocked for 1 h at RT with PBS supplemented with 0.05% Tween-20 and 3% skim milk powder, and subsequently washed again with PBST. Purified recombinant GPVI antigens (human, cynomolgus monkey or mouse GPVI as prepared in Example 1) diluted in PBS and varying concentrations of Fab (comprising a modified heavy chain constant region) diluted in PBS (final concentration range 200-0.3 μg/ml) were incubated in a polypropylene plate for 30 min at RT. Fab/GPVI-Fc mixture was added to coated collagen substrate for 1 h at RT. After washing with PBST, bound GPVI form different species was detected using an ECL-conjugated detection antibody directed against human Fc (Jackson Immuno Research) for 1 h at RT. MSD read buffer (Meso Scale Discovery) was added prior to readout in a Sector Imager6000 (Meso Scale Discovery)."}, "[3]": {"molecular_target": "T3, human GPVI (full-length) expressed on stably transfected CHO cells (human, UniProt Q9HCN6 21-339)", "T3 chain": "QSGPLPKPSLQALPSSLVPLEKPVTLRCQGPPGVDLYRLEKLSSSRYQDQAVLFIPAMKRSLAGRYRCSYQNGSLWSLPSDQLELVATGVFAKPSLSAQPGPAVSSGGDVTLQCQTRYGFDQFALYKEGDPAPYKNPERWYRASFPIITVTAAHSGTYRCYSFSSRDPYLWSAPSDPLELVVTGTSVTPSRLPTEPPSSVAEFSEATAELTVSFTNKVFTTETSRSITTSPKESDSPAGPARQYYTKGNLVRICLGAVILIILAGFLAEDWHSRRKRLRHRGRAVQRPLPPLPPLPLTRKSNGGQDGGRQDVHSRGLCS", "assay": "Cell ELISA (MSD) on CHO cells expressing GPVI", "description": "(§2) CHO cells stably transfected with either human, cynomolgus monkey, or mouse GPVI (SEQ ID NO: 1, SEQ ID NO: 2, SEQ ID NO: 3, respectively and as described in Example 1) were seeded at a density of 5000 cells/well in growth medium on a 96 well high bind plate (Meso Scale Discovery) and cultivated overnight at 37° C. and 5% CO2. Cells were blocked with PBS supplied with 5% BSA and then incubated with Fab (comprising a modified heavy chain constant region) serially diluted to concentrations between 300 nM to 5 pM in PBS supplied with 0.5% BSA. After washing, bound Fab was detected using ECL-conjugated detection antibody directed against human F(ab′)2 fragment (Jackson Immuno Research). MSD read buffer (Meso Scale Discovery) was added to cells prior to readout in a Sector Imager6000 (Meso Scale Discovery). EC50 values were calculated using Prism 5 software (GraphPad)."}, "[4]": {"molecular_target": "T4, mouse GPVI (full-length) expressed on stably transfected CHO cells (mouse, UniProt P0C191 22-313)", "T4 sequence": "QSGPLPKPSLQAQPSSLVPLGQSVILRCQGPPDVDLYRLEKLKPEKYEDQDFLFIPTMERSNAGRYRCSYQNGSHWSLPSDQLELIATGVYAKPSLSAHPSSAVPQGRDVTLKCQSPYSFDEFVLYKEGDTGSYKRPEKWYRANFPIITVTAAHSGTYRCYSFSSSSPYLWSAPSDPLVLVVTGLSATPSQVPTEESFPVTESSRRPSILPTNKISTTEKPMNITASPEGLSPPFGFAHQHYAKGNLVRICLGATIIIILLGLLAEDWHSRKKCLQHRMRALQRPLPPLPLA", "assay": "Cell ELISA (MSD) on CHO cells expressing GPVI", "description": "as §2"}, "[5]": {"molecular_target": "T5, cynomolgus monkey GPVI (full-length) expressed on stably transfected CHO cells (cynomolgus monkey, UniProt Q9HCN6 21-339 (human entry))", "T5 chain": "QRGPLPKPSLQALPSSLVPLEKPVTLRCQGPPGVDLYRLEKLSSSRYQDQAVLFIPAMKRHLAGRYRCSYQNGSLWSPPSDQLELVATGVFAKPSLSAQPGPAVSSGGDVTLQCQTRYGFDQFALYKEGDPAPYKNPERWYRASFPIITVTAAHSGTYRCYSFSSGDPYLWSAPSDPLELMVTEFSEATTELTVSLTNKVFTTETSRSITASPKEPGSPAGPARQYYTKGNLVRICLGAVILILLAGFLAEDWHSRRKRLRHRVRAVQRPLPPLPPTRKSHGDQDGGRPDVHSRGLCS", "assay": "Cell ELISA (MSD) on CHO cells expressing GPVI", "description": "as §2"}, "[6]": {"molecular_target": "T6, cynomolgus monkey GPVI extracellular domain fused at its C-terminus to human IgG1 Fc (GPVI-Fc) (cynomolgus monkey; human)", "T6 construct": "also called cyGPVI-2; cyGPVI", "assay": "Competition ELISA (MSD): cynomolgus GPVI-Fc preincubated with Fab, then on coated CRP-XL (competitor)", "description": "as §1"}}}
{"binder": "Fab #2 comprising a modified heavy chain constant region (Fab, V domains shown, Human Fab from the Ylanthia library; produced in HKB11 cells; also called Fab #2 mod; HC) VH: QVQLVESGGGLVKPGGSLRLSCAASGFSFSDHYMSWIRQAPGKGLEWVSSVGSEGKFIDYAASVKGRFTISRDNAKNSLYLQMNSLRAEDTAVYYCARHYREFRWHYYYFDYWGQGTLVTVSS VL: QSVLTQPPSVSGAPGQRVTISCTGSSSNIGAGYDVHWYQQLPGTAPKLLIYGNSNRPSGVPDRFSGSKSGTSASLAITGLQAEDEADYYCQSHDLGAHVWVFGGGTKLTVLG", "values": [{"measurement": "EC50 (read off the curve)", "setting": "[1]", "value": "~0.5", "unit": "µg/mL"}, {"measurement": "IC50", "setting": "[2]", "value": 4.3, "unit": "nM"}, {"measurement": "Max. inhibition at 200 nM Fab [%]", "setting": "[2]", "value": 99, "unit": "%"}, {"measurement": "EC50", "setting": "[3]", "value": 0.78, "unit": "nM"}, {"measurement": "EC50", "setting": "[4]", "value": 8.28, "unit": "nM"}, {"measurement": "EC50", "setting": "[5]", "value": 1.06, "unit": "nM"}, {"measurement": "IC50", "setting": "[6]", "value": 7.9, "unit": "nM"}, {"measurement": "Max. inhibition at 200 nM Fab [%]", "setting": "[6]", "value": 100, "unit": "%"}]}
{"binder": "Fab #3 comprising a modified heavy chain constant region (Fab, V domains shown, Human Fab from the Ylanthia library; produced in HKB11 cells; also called Fab #3 mod; HC) VH: QVQLVESGGGLVKPGGSLRLSCAASGFSFGDYYVSWIRQAPGKGLEWVSAIGGSGSAVQYAESVKGRFTISRDNAKNSLYLQMNSLRAEDTAVYYCARHYREFRWHYYYFDYWGQGTLVTVSS VL: QSVLTQPPSVSGAPGQRVTISCTGSSSNIGAGYDVHWYQQLPGTAPKLLIYGNSNRPSGVPDRFSGSKSGTSASLAITGLQAEDEADYYCQSHDLGAHVWVFGGGTKLTVLG", "values": [{"measurement": "EC50 (read off the curve)", "setting": "[1]", "value": "~0.3", "unit": "µg/mL"}, {"measurement": "IC50", "setting": "[2]", "value": 3.3, "unit": "nM"}, {"measurement": "Max. inhibition at 200 nM Fab [%]", "setting": "[2]", "value": 100, "unit": "%"}, {"measurement": "EC50", "setting": "[3]", "value": 0.77, "unit": "nM"}, {"measurement": "EC50", "setting": "[4]", "value": 3.74, "unit": "nM"}, {"measurement": "EC50", "setting": "[5]", "value": 1.06, "unit": "nM"}, {"measurement": "IC50", "setting": "[6]", "value": 9.1, "unit": "nM"}, {"measurement": "Max. inhibition at 200 nM Fab [%]", "setting": "[6]", "value": 100, "unit": "%"}]}
{"binder": "Fab #4 comprising a modified heavy chain constant region (Fab, V domains shown, Human Fab from the Ylanthia library; produced in HKB11 cells; also called Fab #4 mod; HC) VH: QVQLVQSGAEVKKPGASVKVSCKASGGAFTSSYMHWVRQAPGQGLEWMGIIEPTGASTLYAQRFQGRVTMTRDTSTSTVYMELSSLRSEDTAVYYCARTGIALPLGFDLWGQGTLVTVSS VL: QSVLTQPPSVSAAPGQKVTISCSGSSSNIGNNYVSWYQQLPGTAPKLLIYDNNKRPSGIPDRFSGSKSGTSATLGITGLQTEDEADYYCAAWSTRFRWVFGGGTKLTVLG", "values": [{"measurement": "EC50 (read off the curve)", "setting": "[1]", "value": "~0.2", "unit": "µg/mL"}, {"measurement": "IC50", "setting": "[2]", "value": 6.7, "unit": "nM"}, {"measurement": "Max. inhibition at 200 nM Fab [%]", "setting": "[2]", "value": 94, "unit": "%"}, {"measurement": "EC50", "setting": "[3]", "value": 0.78, "unit": "nM"}, {"measurement": "EC50", "setting": "[4]", "value": 0.93, "unit": "nM"}, {"measurement": "EC50", "setting": "[5]", "value": 0.8, "unit": "nM"}, {"measurement": "IC50", "setting": "[6]", "value": 11.3, "unit": "nM"}, {"measurement": "Max. inhibition at 200 nM Fab [%]", "setting": "[6]", "value": 51, "unit": "%"}]}
{"binder": "Reference Control Antibody RefFab #1 (humanized GPVI antibody of WO2011073954A2, SANOFI) (Fab, V domains shown, Cloned into mammalian Fab expression vectors; a glycine-serine linker (G4S)2 was added to the C-terminus of the Fab heavy chain) VH: EVQLLESGPGLVAPSGSLSITCTVSGFSLTGYGVNWVRQPPGKGLEWLGMIWGDGSTDYQSTLKSRLSISKDNSKSQVFLKMNSLRTDDTARYYCARDLPMDYWGLGTSVTVSS VL: DIQMTQSPSSLSASVGGRVTITCKASQDINKYIAWYQHKPGKGPSLLIHYTSTLQPGVPSRFSGSGSGRDYSFSISNLQPEDIATYYCLQYANLLTFGGGTKLEIKR", "values": [{"measurement": "EC50", "setting": "[3]", "value": 2.8, "unit": "nM"}, {"measurement": "EC50", "setting": "[5]", "value": 2.09, "unit": "nM"}, {"measurement": "IC50", "setting": "[6]", "value": 9.5, "unit": "nM"}, {"measurement": "Max. inhibition at 200 nM Fab [%]", "setting": "[6]", "value": 100, "unit": "%"}]}
{"binder": "Fab #1 comprising a modified heavy chain constant region (Fab, V domains shown, Human Fab from the Ylanthia library; produced in HKB11 cells; also called Fab #1 mod; HC) VH: QVQLVQSGAEVKKPGASVKVSCKASGYTFTSHYMHWVRQAPGQGLEWMGLIEPSEGETEYAQRFQGRVTMTRDTSTSTVYMELSSLRSEDTAVYYCARDSSRSYPLGFDIWGQGTLVTVSS VL: QSVLTQPPSVSAAPGQKVTISCSGSSSNIGNNYVSWYQQLPGTAPKLLIYDNNKRPSGIPDRFSGSKSGTSATLGITGLQTEDEADYYCAAWDFRSSRWVFGGGTKLTVLG", "values": [{"measurement": "EC50 (read off the curve)", "setting": "[1]", "value": "~3", "unit": "µg/mL"}, {"measurement": "IC50", "setting": "[2]", "value": 9.1, "unit": "nM"}, {"measurement": "Max. inhibition at 200 nM Fab [%]", "setting": "[2]", "value": 96, "unit": "%"}, {"measurement": "EC50", "setting": "[3]", "value": 0.89, "unit": "nM"}, {"measurement": "EC50", "setting": "[5]", "value": 0.74, "unit": "nM"}, {"measurement": "IC50", "setting": "[6]", "value": 11.5, "unit": "nM"}, {"measurement": "Max. inhibition at 200 nM Fab [%]", "setting": "[6]", "value": 59, "unit": "%"}]}
